We go through 8 molecules from article PMC11933844, “Autosuppression of MdNAC18.1 endowed by a 61‐bp promoter fragment duplication delays maturity date in apple”.

T1: MdNAC72 (UniProt A0A498KB81 69-407)
T1 sequence: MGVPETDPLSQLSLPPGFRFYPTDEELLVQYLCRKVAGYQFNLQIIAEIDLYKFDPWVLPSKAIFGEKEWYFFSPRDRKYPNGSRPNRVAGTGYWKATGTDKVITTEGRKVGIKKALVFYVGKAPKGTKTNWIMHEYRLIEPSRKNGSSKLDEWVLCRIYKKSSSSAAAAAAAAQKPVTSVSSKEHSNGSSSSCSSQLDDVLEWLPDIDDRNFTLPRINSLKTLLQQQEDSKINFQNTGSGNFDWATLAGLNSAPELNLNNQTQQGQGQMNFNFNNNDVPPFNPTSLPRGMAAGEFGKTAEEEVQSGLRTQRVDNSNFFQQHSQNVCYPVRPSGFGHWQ

B1: MdACO1-like promoter probe NACBS1 (dsDNA)
DNA 1: TCAAGTACCATAACTACACGTAACTTGCAAAGTTCC
DNA 2: GGAACTTTGCAAGTTACGTGTAGTTATGGTACTTGA
B2: MdACS1 promoter probe mutant (dsDNA)
DNA 1: GTACACTTATAATAAAAAAACAAGTTTGTAGGTAAT
DNA 2: ATTACCTACAAACTTGTTTTTTTATTATAAGTGTAC
B3: MdNAC18.1 P promoter probe mutant (dsDNA)
DNA 1: GACATACAATGTTCTGATTCGTATGAGATAACTTAA
DNA 2: TTAAGTTATCTCATACGAATCAGAACATTGTATGTC
B4: MdMYC2 promoter probe NACBS1 (dsDNA)
DNA 1: TCTGGGATCCTGGTTTCACGGGTTTTCGAGGTTTTC
DNA 2: GAAAACCTCGAAAACCCGTGAAACCAGGATCCCAGA
B5: MdACO1-like promoter probe mutant (dsDNA)
DNA 1: B1 DNA 1 with T15A, C17A, C19A, G20A
DNA 2: B1 DNA 2 with C17T, G18T, G20T, A22T
B6: MdNAC18.1 P promoter probe (CTAAC) (dsDNA)
DNA 1: GACATACAATGTTCTGATTCGTATTCTAACACTTAA
DNA 2: TTAAGTGTTAGAATACGAATCAGAACATTGTATGTC
B7: MdNAC72 promoter probe NACBS1 (dsDNA)
DNA 1: TATTGACCCACATTTGCACGTAGCCTTGTAAACTTG
DNA 2: CAAGTTTACAAGGCTACGTGCAAATGTGGGTCAATA
B8: MdACS1 promoter probe NACBS5 (dsDNA)
DNA 1: GTACACTTATAATCCCCACGCAAGTTTGTAGGTAAT
DNA 2: ATTACCTACAAACTTGCGTGGGGATTATAAGTGTAC

Substitutions are numbered along the chain they refer to.

The first series deals with T1, MdNAC72. Briefly: EMSA; Beyotime Chemiluminescent EMSA Kit GS009; buffer, salt, pH and temperature not stated. To be noted: protein: recombinant; tags: His (pET32A); chain copies: 2; label: 3' biotin; blunt. Background: A gel shift assay detects complexes by their altered migration in electrophoresis.
In the case of B1, the binding result is “binds”.

In a further series the target is MdNAC18.1 (UniProt A0A498K6T8 1-364). Described as above. The settings on record: protein: recombinant; tags: His (pET32A); chain copies: 2; blunt.
MdNAC18.1, sequence (A0A498K6T8 entry or part of it): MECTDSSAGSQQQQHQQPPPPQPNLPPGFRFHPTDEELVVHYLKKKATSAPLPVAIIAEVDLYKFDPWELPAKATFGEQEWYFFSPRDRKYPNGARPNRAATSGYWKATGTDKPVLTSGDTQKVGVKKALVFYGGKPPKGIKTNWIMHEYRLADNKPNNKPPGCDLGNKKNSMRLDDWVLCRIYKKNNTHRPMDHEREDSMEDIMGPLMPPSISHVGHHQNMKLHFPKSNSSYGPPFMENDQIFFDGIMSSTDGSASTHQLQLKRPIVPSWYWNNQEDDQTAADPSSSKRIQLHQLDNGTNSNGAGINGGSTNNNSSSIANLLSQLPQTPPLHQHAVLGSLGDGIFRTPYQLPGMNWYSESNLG
As for B2, the binding result is recorded as “no binding”.
B3: the binding result is recorded as “no binding”.
For the molecule B4, the binding result was “binds”.
With B5, the binding result is reported as “no binding”.

Still in this series, the particulars now being: protein: recombinant; tags: His (pET32A); chain copies: 2; label: 3' biotin; blunt.
As for B6, the binding result is reported as “binds”.
Still for that read-out and setting: the entry for B7 is “binds”; for B8 it is “binds”.
As to B1, the binding result is “binds”.
